Assay [1] has as its target T1, human CCR8 (human, UniProt P51685 1-355).
T1 construct: also CHO-hCCR8-Ga15 / CHO/hCCR8.Gna15); also called hCCR8; huCCR8
Kind of assay: flow cytometry titration on CHO cells stably expressing human CCR8 (14 h, room temperature). As for the experimental part: (§1) In particular, human CCR8 CHO and cyno (cynomolgus monkey) CCR8 CHO stable cell lines were stained with a dilution series of anti-CCR8 antibodies at room temperature for 14 hours, then washed twice with FACS buffer (PBS with 0.5% BSA and 0.2 mM EDTA). Samples were washed twice with FACS buffer followed by staining with goat Fab anti-hu IgG H+L (1:300, Jackson Immuno) at 4° C. for 15 minutes.

Assay [2] deals with T2, cyno CCR8 (cynomolgus monkey, UniProt O97665 1-356 (rhesus entry)).
T2 construct: also called cynomolgus CCR8; cyCCR8
Kind of assay: flow cytometry titration on CHO cells stably expressing cyno CCR8 (14 h, room temperature). As for the experimental part:
as §1
For orientation: A flow cytometer gives signals particle by particle.

The target in assay [3] is T3, Human CD3-epsilon/delta dimer (linked by murine Fc) (human; mouse, UniProt P07766 23-126; P04234 22-105).
T3 construct: also called huCD3ed-mIgG2a.Fc; recombinant human CD3epsilon/delta; not shown: mouse IgG2a Fc
Kind of assay: SPR (Biacore T200, 37 C), TDB captured by anti-human Fc on CM5, huCD3ed-mIgG2a.Fc injected; 1:1 Langmuir, n=3. In general terms: SPR reads the build-up and loss of mass on a sensor chip optically.

In assay [4] the target is T1, human CCR8. Kind of assay: cellular binding with LigandTracer on CHO cells expressing human CCR8, three experiments (same values as the bivalent row of Table 8). The procedure: (§2) Untransfected CHO cells were used to subtract the non-specific binding. Specific binding traces were analyzed using TraceDrawer 1.7 (Ridgeview Instruments) software and fit with a 1-to-2 with bulk binding model to determine association (kₐ) and dissociation (kd) rate constants. The equilibrium dissociation constants (KD) for each binding event were calculated as the ratio of the dissociation and association rates, kd/kₐ.
(§3) 1 million CHO cells stably expressing either human or cynomolgus CCR8 (about 60,000 and about 30,000 receptors/cell, respectively) were seeded at a concentration of 1 million cells/mL onto a Multidish 2×2 Petri Dish (Ridgeview Instruments AB, Sweden) to form a circular drop of about 3 cm diameter in chambers A and C of the dish. Untransfected CHO cells were seeded in opposing chambers (B and D) in the same manner. Cells were left undisturbed to adhere for 4 hours. […] The plate was loaded onto a […]® Green (Ridgeview Instruments AB) for real-time fluorescence measurement. […] The Ab dissociation was measured overnight to obtain accurate off-rates. […] Specific binding traces were analyzed using TraceDrawer 1.7 (Ridgeview Instruments) software to determine the association-(kₐ) and dissociation-(kd) rate constants. The equilibrium dissociation constants (KD) for each binding event were calculated as the ratio of the dissociation and association rates, kd/kₐ. […]

For assay [5], the target named is T2, cyno CCR8. Kind of assay: LigandTracer real-time fluorescence, Alexa Fluor 488-labelled TDB on CHO cells expressing cyno CCR8; 1-to-2 fit, bivalent event. The procedure: (§4) The following day, media was aspirated and fresh media was added. The cells were incubated at room temperature for 20 minutes prior to starting the assay. The plate was loaded onto a LIGAND TRACER® Green instrument (Ridgeview Instruments AB) for real-time fluorescence measurement. […] Antibody (Ab) dissociation was recorded by aspirating the media and adding fresh media with 10 nM of unlabeled Ab to prevent rebinding of labeled Ab. The Ab dissociation was measured overnight to obtain accurate off-rates. Untransfected CHO cells were used to subtract the non-specific binding. Specific binding traces were analyzed using TraceDrawer 1.7 (Ridgeview Instruments) software and fit with a 1-to-2 with bulk binding model to determine association (kₐ) and dissociation (kd) rate constants. The equilibrium dissociation constants (KD) for each binding event were calculated as the ratio of the dissociation and association rates, kd/kₐ.
(§5) 1 million CHO cells stably expressing either human or cynomolgus CCR8 (about 60,000 and about 30,000 receptors/cell, respectively) were seeded at a concentration of 1 million cells/mL onto a Multidish 2×2 Petri Dish (Ridgeview Instruments AB, Sweden) to form a circular drop of about 3 cm diameter in chambers A and C of the dish. […] The plate was loaded onto a […]® Green (Ridgeview Instruments AB) for real-time fluorescence measurement.

The target of assay [6] is T2, cyno CCR8. Kind of assay: cellular binding with LigandTracer on CHO cells expressing cyno CCR8, three experiments (same values as the bivalent row of Table 8). As for the experimental part: as §2, §3
Assay [7] deals with T1, human CCR8. Kind of assay: LigandTracer real-time fluorescence, Alexa Fluor 488-labelled TDB on CHO cells expressing human CCR8; 1-to-2 fit, bivalent event. The procedure:
as §4, §5

The target of assay [8] is T2, cyno CCR8. Kind of assay: LigandTracer real-time fluorescence, Alexa Fluor 488-labelled TDB on CHO cells expressing cyno CCR8; 1-to-2 fit, monovalent event. As for the experimental part: as §4, §5
The target in assay [9] is T1, human CCR8. Kind of assay: LigandTracer real-time fluorescence, Alexa Fluor 488-labelled TDB on CHO cells expressing human CCR8; 1-to-2 fit, monovalent event. As for the experimental part:
as §4, §5

Broadly, the EC50 is the concentration giving half of the maximal effect.

T1 sequence (P51685 whole entry): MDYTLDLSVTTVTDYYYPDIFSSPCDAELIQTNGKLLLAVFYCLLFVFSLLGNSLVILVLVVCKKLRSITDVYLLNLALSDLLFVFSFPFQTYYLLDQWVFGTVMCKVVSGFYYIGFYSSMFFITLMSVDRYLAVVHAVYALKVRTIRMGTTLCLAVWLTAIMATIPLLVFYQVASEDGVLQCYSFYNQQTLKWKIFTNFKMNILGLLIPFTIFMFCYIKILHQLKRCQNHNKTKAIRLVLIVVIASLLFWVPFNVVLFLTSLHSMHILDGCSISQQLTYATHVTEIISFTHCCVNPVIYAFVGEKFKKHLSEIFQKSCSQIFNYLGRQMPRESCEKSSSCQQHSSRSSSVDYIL
T2 sequence (O97665 other isoform, or with tags, fused parts or gaps): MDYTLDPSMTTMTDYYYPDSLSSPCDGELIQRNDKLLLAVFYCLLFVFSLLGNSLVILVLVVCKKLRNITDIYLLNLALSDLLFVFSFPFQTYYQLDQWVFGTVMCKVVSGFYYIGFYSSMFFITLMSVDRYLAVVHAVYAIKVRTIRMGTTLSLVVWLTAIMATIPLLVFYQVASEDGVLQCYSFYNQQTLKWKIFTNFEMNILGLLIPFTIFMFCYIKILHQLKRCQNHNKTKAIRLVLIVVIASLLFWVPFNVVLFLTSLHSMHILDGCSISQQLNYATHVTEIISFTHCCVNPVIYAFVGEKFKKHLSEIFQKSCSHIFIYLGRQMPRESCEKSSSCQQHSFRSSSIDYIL
T3 sequence (P07766 23-126, stated change not applied, chain 1 of 2): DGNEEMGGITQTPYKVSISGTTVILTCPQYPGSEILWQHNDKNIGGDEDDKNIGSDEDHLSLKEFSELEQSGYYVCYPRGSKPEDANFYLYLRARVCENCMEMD
T3 sequence (P04234 22-105, stated change not applied, chain 2 of 2): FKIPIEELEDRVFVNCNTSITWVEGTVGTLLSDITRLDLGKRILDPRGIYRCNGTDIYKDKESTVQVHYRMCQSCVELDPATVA

B1: anti-CCR8 1889 WT antibody (parent) (antibody, V domains shown)
VH: EVQLLESGGGLVQPGGSLRLSCAASGIDLSTYAMGWVREAPGKGLEWVGLIHRSGRTYYATWAKGRFTISKDSSKNTLYLQMNSLRAEDTAVYYCTRSYPDYSATASIWGQGTTVTVSS
VL: DIQVTQSPSSLSASVGDRVTITCQASENIANALAWYQKKPGKPPKFLIYGASNLASGVPSRFSGSGSGTDFTFTISSLQPEDIATYYCQQAYYGNSFVEGTFGGGTKVEIK
notes: The antibody has human IgG constant regions (detected with anti-human IgG)
For B1, the results for the EC50 in assay [1] and in assay [2] were 17.1 nM and 11.5 nM, respectively.

B2: anti-CCR8 1889 S12P.I29V.E95dS.T57D.Y58A (PVSDA) (antibody, V domains shown)
VH: EVQLLESGGGLVQPGGSLRLSCAASGIDLSTYAMGWVREAPGKGLEWVGLIHRSGRDAYATWAKGRFTISKDSSKNTLYLQMNSLRAEDTAVYYCTRSYPDYSATASIWGQGTTVTVSS
VL: DIQVTQSPSSLPASVGDRVTITCQASENVANALAWYQKKPGKPPKFLIYGASNLASGVPSRFSGSGSGTDFTFTISSLQPEDIATYYCQQAYYGNSFVSGTFGGGTKVEIK
notes: It is put together from the printed names of the heavy and light chain variants; also called I29V.E95dS.Y57D.Y58A
As for B2, the EC50 in assay [1] was determined as 0.94 nM; in [2] it was 2.24 nM.

B3: anti-CCR8 1889 S12P.I29V.E95dS.Y58A (PVSA) (antibody, V domains shown)
VH: EVQLLESGGGLVQPGGSLRLSCAASGIDLSTYAMGWVREAPGKGLEWVGLIHRSGRTAYATWAKGRFTISKDSSKNTLYLQMNSLRAEDTAVYYCTRSYPDYSATASIWGQGTTVTVSS
VL: DIQVTQSPSSLPASVGDRVTITCQASENVANALAWYQKKPGKPPKFLIYGASNLASGVPSRFSGSGSGTDFTFTISSLQPEDIATYYCQQAYYGNSFVSGTFGGGTKVEIK
notes: It is put together from the printed names of the heavy and light chain variants
Take B3: the values for the EC50 in [1] and in assay [2] were 1.19 nM and 3.39 nM, respectively.

B4: anti-CCR8 1889 S12P.I29V.Y58A (PVA) (antibody, V domains shown)
VH: EVQLLESGGGLVQPGGSLRLSCAASGIDLSTYAMGWVREAPGKGLEWVGLIHRSGRTAYATWAKGRFTISKDSSKNTLYLQMNSLRAEDTAVYYCTRSYPDYSATASIWGQGTTVTVSS
VL: DIQVTQSPSSLPASVGDRVTITCQASENVANALAWYQKKPGKPPKFLIYGASNLASGVPSRFSGSGSGTDFTFTISSLQPEDIATYYCQQAYYGNSFVEGTFGGGTKVEIK
notes: It is put together from the printed names of the heavy chain variant (Y58A) and the light chain variant (S12P.I29V)
B4: the EC50 in assay [1] is 1.03 nM; in [2], 6.14 nM.

B5: anti-CCR8 1889 S12P.I29V.E95dS (PVS) (antibody, V domains shown)
VH: EVQLLESGGGLVQPGGSLRLSCAASGIDLSTYAMGWVREAPGKGLEWVGLIHRSGRTYYATWAKGRFTISKDSSKNTLYLQMNSLRAEDTAVYYCTRSYPDYSATASIWGQGTTVTVSS
VL: DIQVTQSPSSLPASVGDRVTITCQASENVANALAWYQKKPGKPPKFLIYGASNLASGVPSRFSGSGSGTDFTFTISSLQPEDIATYYCQQAYYGNSFVSGTFGGGTKVEIK
Turning to B5, the EC50 in assay [1] was found to be 0.66 nM; in assay [2], 3.13 nM.

B6: anti-CCR8 1889 S12P.I29V (PV) (antibody, V domains shown)
VH: EVQLLESGGGLVQPGGSLRLSCAASGIDLSTYAMGWVREAPGKGLEWVGLIHRSGRTYYATWAKGRFTISKDSSKNTLYLQMNSLRAEDTAVYYCTRSYPDYSATASIWGQGTTVTVSS
VL: DIQVTQSPSSLPASVGDRVTITCQASENVANALAWYQKKPGKPPKFLIYGASNLASGVPSRFSGSGSGTDFTFTISSLQPEDIATYYCQQAYYGNSFVEGTFGGGTKVEIK
For the molecule B6, the EC50 in assay [1] was determined as 1.65 nM; in assay [2], 7.67 nM.

B7: 1889/1889:40G5c anti-CCR8 TDB 2+1 A/AB (A: 1889 P, B: 40G5c) (bispecific antibody, human IgG1, kappa, L234A L235A)
heavy 1: EVQLLESGGGLVQPGGSLRLSCAASGIDLSTYAMGWVREAPGKGLEWVGLIHRSGRTYYATWAKGRFTISKDSSKNTLYLQMNSLRAEDTAVYYCTRSYPDYSATASIWGQGTTVTVSSASTKGPSVFPLAPSSKSTSGGTAALGCLVKDYFPEPVTVSWNSGALTSGVHTFPAVLQSSGLYSLKSVVTVPSSSLGTQTYICNVNHKPSNTKVDKKVEPKSCDKTHTCPPCPAPEAAGGPSVFLFPPKPKDTLMISRTPEVTCVVVDVSHEDPEVKFNWYVDGVEVHNAKTKPREEQYNSTYRVVSVLTVLHQDWLNGKEYKCKVSNKALGAPIEKTISKAKGQPREPQVYTLPPSREEMTKNQVSLWCLVKGFYPSDIAVEWESNGQPENNYKTTPPVLDSDGSFFLYSKLTVDKSRWQQGNVFSCSVMHEALHNHYTQKSLSLSPGK
light 1: DIQVTQSPSSLPASVGDRVTITCQASENIANALAWYQKKPGKPPKFLIYGASNLASGVPSRFSGSGSGTDFTFTISSLQPEDIATYYCQQAYYGNSFVEGTFGGGTKVEIKRTVAAPSVFIFPPSDEQLKSGTASVECLLNNFYPREAKVQWKVDNALQSGNSQESVTEQDSKDSTYSLSSTLTLSKADYEKHKVYACEVTHQGLSSPVTKSFNRGEC
heavy 2: EVQLLESGGGLVQPGGSLRLSCAASGIDLSTYAMGWVREAPGKGLEWVGLIHRSGRTYYATWAKGRFTISKDSSKNTLYLQMNSLRAEDTAVYYCTRSYPDYSATASIWGQGTTVTVSSASTKGPSVFPLAPSSKSTSGGTAALGCLVKDYFPEPVTVSWNSGALTSGVHTFPAVLQSSGLYSLKSVVTVPSSSLGTQTYICNVNHKPSNTKVDKKVEPKSCDKTHTEVQLVQSGAEVKKPGASVKVSCKASGYTFTNYYIHWVRKAPGQGLEWIGWIYPGDGNTKYNEKFKGRATLTADTSTSTAYLELSSLRSEDTAVYYCARDSYSNYYFDYWGQGTLVTVSSASTKGPSVFPLAPSSKSTSGGTAALGCLVKDYFPEPVTVSWNSGALTSGVHTFPAVLQSSGLYSLESVVTVPSSSLGTQTYICNVNHKPSNTKVDKKVEPKSCDKTHTCPPCPAPEAAGGPSVFLFPPKPKDTLMISRTPEVTCVVVDVSHEDPEVKFNWYVDGVEVHNAKTKPREEQYNSTYRVVSVLTVLHQDWLNGKEYKCKVSNKALGAPIEKTISKAKGQPREPQVYTLPPSREEMTKNQVSLSCAVKGFYPSDIAVEWESNGQPENNYKTTPPVLDSDGSFFLVSKLTVDKSRWQQGNVFSCSVMHEALHNHYTQKSLSLSPGK
light 2: not shown
notes: 2+1 T cell-dependent bispecific: human IgG1 Fc with LALA-PG, knob-into-hole and charge mutations
Turning to B7, the Kd in assay [3] is 1160 nM; in [4] it was 0.008 nM; in assay [5], 0.0228 nM; in assay [6] it was 0.023 nM; in assay [7], 0.00778 nM; in assay [8], 1.01 nM. In addition, in assay [9], the Kd came to 0.484 nM.
